Numbering of substitutions follows the chain as printed.
T1: mouse 4-1BB on HEK293 cells (mouse, UniProt P20334 24-256)
T1 construct: whole, on cells; also called Mouse 4-1BB transfected HEK293 cells
T1 sequence (looked up): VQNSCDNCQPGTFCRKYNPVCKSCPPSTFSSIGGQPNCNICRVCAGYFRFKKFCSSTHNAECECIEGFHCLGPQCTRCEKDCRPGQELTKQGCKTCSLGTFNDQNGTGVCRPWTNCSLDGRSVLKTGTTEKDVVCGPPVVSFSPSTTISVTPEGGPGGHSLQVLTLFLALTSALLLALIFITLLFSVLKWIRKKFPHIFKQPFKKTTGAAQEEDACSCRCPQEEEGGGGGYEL

B1: cAb 137QL.F1.1.G2 (antibody, human IgG2, V domains shown)
VH: QVQLQQSGAELARPGASVKMSCKASGYTFTFYTMHWLKQRPGQGLEWIGYINPSSGYTNYNQKFTDKATLTADKSSSTAYMQLSSLTSEDSAVYYCARSDGSSSKWYFDVWGTGTTVTVSS
VL: QIVLSQSPTILSASPGEKVTMTCRASSSVSYIHWYQQKPGSSPKAWISATSNLASGVPARFSGSGSGTSYSLTISRVEAEDAATYYCQQWSSNPFTFGSGTKLEIK
notes: Chimeric antibody; also called Chimeric F1.1; cAb F1.1.G2
B2: cAB 137QL.G28.21.G2 (antibody, human IgG2, V domains shown)
VH: EVQLQQSGAELVRPGASVKLSCTASGFNIKDYYIHWVNQRPEQGLEWIGRIDPEDGDIAYAPKFQDKATLTVDTSSNTAYLHIIGLTSEDTAVYYCTTGNYYAMDFWGQGTSVTVSS
VL: QIVLTQSPAIMSASLGERVTMTCTASSSVSSSYLHWYQQKPGSSPKLWIYSTSNLASGVPARFSGSGSGTSYSLTISSMEAEDAATYYCHQYHRSPPTFGSGTKLEIK
notes: Chimeric antibody; also called Chimeric G28.21; cAb G28.21.G2
B3: huG28.21.G2.1.4 (antibody, human IgG2, kappa, V domains shown)
VH: EVQLVQSGAEVKKPGATVKISCKASGFNIKDYYIHWVNQAPGKGLEWIGRIDPEDGDIAYAPKFQDRVTLTVDTSTDTAYLELSSLRSEDTAVYYCTTGNYYAMDFWGQGTTVTVSS
VL: QIVLTQSPATLSASPGERVTLSCTASSSVSSSYLHWYQQKPGSSPKLWIYSTSNLASGVPARFSGSGPGTSYTLTISSMEPEDAATYYCHQYHRSPPTFGQGTKLEIKR
notes: also called huG28.21.1.4
B4: huG28.21.G2.4.4 (antibody, human IgG2, kappa, V domains shown)
VH: B3 VH with V5Q, I20L, A40R, K43Q, V68A, D77N
VL: B3 VL
notes: also called huG28.21.4.4
B5: huF1.1.G2.2.4 (antibody, human IgG2, kappa, V domains shown)
VH: QVQLVQSGAEVKKPGASVKVSCKASGYTFTFYTMHWLRQAPGQGLEWIGYINPSSGYTNYNQKFTDRATLTADTSTSTAYMELSSLRSEDTAVYYCARSDGSSSKWYFDVWGQGTTVTVSS
VL: EIVLTQSPDFQSATPKEKVTITCRASSSVSYIHWYQQKPGSSPKAWISATSNLASGVPSRFSGSGSGTSYTLTINRVEAEDAATYYCQQWSSNPFTFGQGTKLEIKR
notes: also called huF1.1.2.4
B6: huF1.1.G2.4.4 (antibody, human IgG2, kappa, V domains shown)
VH: B5 VH with V20M, R38K, T74K
VL: B5 VL
notes: also called huF1.1.4.4
B7: F1.1 (antibody, V domains shown)
VH: B1 VH
VL: B1 VL
notes: The flow method detects with anti-human IgG; also called anti-4-1BB mAb F1.1
B8: G28.21 (antibody, V domains shown)
VH: B2 VH
VL: B2 VL
notes: also called anti-4-1BB mAb G28.21

Biological target: T2, human 4-1BB on cells (human, UniProt Q07011 24-255)
Assay: cell-based or functional assay

T2 sequence (Q07011 24-255): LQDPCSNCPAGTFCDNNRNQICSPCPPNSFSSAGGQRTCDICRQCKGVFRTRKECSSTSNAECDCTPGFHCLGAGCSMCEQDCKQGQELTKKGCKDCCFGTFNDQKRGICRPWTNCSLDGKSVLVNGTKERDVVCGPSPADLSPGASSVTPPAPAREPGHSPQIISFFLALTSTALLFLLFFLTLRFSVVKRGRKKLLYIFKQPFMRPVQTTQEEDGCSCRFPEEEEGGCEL

Row | Binder | NF-KB reporter activation, curve fit Bottom [RLU] | NF-KB reporter activation, curve fit Top [RLU]
1 | B1 | 894 | 6730
2 | B2 | 879 | 4590
3 | B3 | 625 | 4170
4 | B4 | 592 | 3920
5 | B5 | 838 | 7190
6 | B6 | 666 | 5940

Biological target: T3, 4-1BB (CD137), antigen of the Octet kinetics (UniProt Q07011 24-186, limits assumed)
T3 construct: also called TNFRSF9
Assay: Octet (BLI), mono-valent binding kinetics

Row | Binder | Kd [nM] | Response | T1/2 Life [min] | koff [s⁻¹] | kon [M⁻¹ s⁻¹]
7 | B1 | 41.9 | 0.138 | 2 | 0.00578 | 138000
8 | B2 | 14 | 0.204 | 2.2 | 0.00523 | 373000
9 | B3 | 15.3 | 0.181 | 1.8 | 0.00652 | 426000
10 | B4 | 10.4 | 0.175 | 2.5 | 0.00467 | 449000
11 | B5 | 40.6 | 0.12 | 2.1 | 0.00559 | 138000
12 | B6 | 40.4 | 0.137 | 1.9 | 0.00618 | 153000

Biological target: T1, mouse 4-1BB on HEK293 cells
Assay: flow cytometry, mouse 4-1BB transfected HEK293 cells
Protocol: (§1) Human/Cyno/Mouse 4-1BB transfected HEK293 cells or PHA-P stimulated PBMCs were incubated with serial diluted anti-4-1BB antibodies in FACS buffer (DPBS+ 2% FBS+ 0.05% sodium azide) followed by AF647-labeled F(ab′)2 goat anti-human IgG and 7-AAD. In addition, PBMCs were incubated with FITC Mouse anti-human CD3. Stained 4-1BB expressing HEK293 samples were analyzed using FlowJo by gating on FSC/SSC, followed by live/dead cell gating, and human/Cynomolgous/Mouse 4-1BB+ cells (MFI Geo Mean denoted). Stained Lymphocyte samples were analyzed using FlowJo by gating on FSC/SSC, followed by live/dead cell gating, and CD3+ cells with 4-1BB positives. (Table 2 and Table 3)

Row | Binder | binding result
13 | B7 | no binding
14 | B8 | no binding

Biological target: T4, cyno 4-1BB on HEK293 cells (cyno, UniProt A9YYE7 24-254)
T4 construct: whole, on cells; also called Cynomolgous 4-1BB; HEK293 cells over-expressing cyno 4-1BB
Assay: flow cytometry, HEK293 cells over-expressing cyno 4-1BB
Protocol: as §1

T4 sequence (A9YYE7 entry or part of it): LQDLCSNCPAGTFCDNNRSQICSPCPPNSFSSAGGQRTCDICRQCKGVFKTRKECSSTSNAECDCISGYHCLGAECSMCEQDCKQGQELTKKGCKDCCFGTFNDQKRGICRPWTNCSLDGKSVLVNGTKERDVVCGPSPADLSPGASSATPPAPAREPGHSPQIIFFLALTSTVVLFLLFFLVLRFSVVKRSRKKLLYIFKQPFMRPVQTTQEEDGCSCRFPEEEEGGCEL

Row | Binder | EC50 [µg/mL]
15 | B7 | 0.392
16 | B8 | 0.162

Biological target: T2, human 4-1BB on cells
Assay: flow cytometry, activated (PHA-P stimulated) human T cells
Protocol: as §1

Row | Binder | EC50 [µg/mL]
17 | B7 | 0.233
18 | B8 | 0.08

Biological target: T2, human 4-1BB on cells
Assay: cell-based or functional assay
Remark: another data set of the same source

Row | Binder | NF-kB Stimulation (EC50) [µg/mL]
19 | B7 | 0.026
20 | B8 | 0.018

Biological target: T2, human 4-1BB on cells
Assay: flow cytometry, HEK293 cells over-expressing human 4-1BB
Protocol: as §1

Row | Binder | EC50 [µg/mL]
21 | B7 | 0.341
22 | B8 | 0.121

Reference: patent US20220064314A1 (QLSF BIOTHERAPEUTICS, published 2022)
